Source: PMC4020580

Each substance was assayed against bovine trypsin (bovine).

Stoichiometry of inhibition (SI) of bovine trypsin, 1.1:
labeled single-Cys S47C α1AT (natural protein)
α1AT Ser313Cys double-Cys variant (2Cys313), unlabeled (natural protein)
labeled single-Cys S313C α1AT (natural protein)
